Experimental data reported in publication PMC10041115, “Cryo-EM structure of the four-subunit Rhodobacter sphaeroides cytochrome bc1 complex in styrene maleic acid nanodiscs” (Proceedings of the National Academy of Sciences of the …, 2023).

Legend:
[1] = biological target: T1, four-subunit cytochrome bc1 complex (WT) in SMA nanodiscs (Cereibacter sphaeroides, UniProt Q02761+Q02762); experiment: cryo-EM structure, […] Å; assay type: binding; settings: natively bound, co-purified; Qo site of one cyt b; isoprene tail truncated in model; redox state not determined; H-bond to Rieske His152
T1 construct: gene petB; native purification from photosynthetically grown cells, SMA lipid nanodisc, His10 tag on cyt c1, dimer; SIV 124 residues, 79-107 resolved; with Cytochrome c1; Ubiquinol-cytochrome c reductase subunit IV

[2] = biological target: T2, cytochrome b subunit of the Rhodobacter sphaeroides cytochrome bc1 complex (Rhodobacter sphaeroides, UniProt Q02761 1-445); experiment: cryo-EM structure; settings: both partners purified
T2 construct: also called cyt b; source: endogenous, R. sphaeroides grown photosynthetically; SMA-solubilised membranes, purified in native nanodiscs (Ni-NTA, sucrose gradient, SEC)
T2 sequence (looked up): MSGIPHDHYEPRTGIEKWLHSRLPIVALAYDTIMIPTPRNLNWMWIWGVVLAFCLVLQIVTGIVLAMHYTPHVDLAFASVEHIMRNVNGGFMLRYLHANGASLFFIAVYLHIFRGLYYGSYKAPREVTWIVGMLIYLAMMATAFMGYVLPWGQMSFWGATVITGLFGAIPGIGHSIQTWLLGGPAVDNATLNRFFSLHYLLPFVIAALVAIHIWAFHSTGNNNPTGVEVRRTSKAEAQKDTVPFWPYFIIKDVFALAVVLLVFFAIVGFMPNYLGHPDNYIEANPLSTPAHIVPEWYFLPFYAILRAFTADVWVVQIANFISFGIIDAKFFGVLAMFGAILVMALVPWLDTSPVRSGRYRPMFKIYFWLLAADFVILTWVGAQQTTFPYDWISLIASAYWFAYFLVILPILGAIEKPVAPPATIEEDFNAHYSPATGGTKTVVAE

[3] = biological target: the molecule itself; experiment: cryo-EM structure; purified four-subunit cyt bc1 in SMA native lipid nanodiscs, no inhibitors added, 20 mM Tris-HCl pH 8, 200 mM NaCl; C1 consensus map at 2.9 Å and a focused class at 3.75 Å (FSC 0.5)

Molecule: COC1=C(OC)C(=O)C(C/C=C(\C)CC/C=C(\C)CC/C=C(\C)CC/C=C(\C)CC/C=C(\C)CC/C=C(\C)CC/C=C(\C)CC/C=C(\C)CC/C=C(\C)CCC=C(C)C)=C(C)C1=O [U10, ubiquinone-10]
- cryo-EM structure, 2.9 Å [1]: a ubiquinone-10 molecule bound in the Qo site of one of the cyt b subunits

B1: Rieske iron-sulfur protein subunit of the Rhodobacter sphaeroides cytochrome bc1 complex (natural protein, UniProt Q02762 1-187, looked up)
chain: MSNAEDHAGTRRDFLYYATAGAGAVATGAAVWPLINQMNPSADVQALASIFVDVSSVEPGVQLTVKFLGKPIFIRRRTEADIELGRSVQLGQLVDTNARNANIDAGAEATDQNRTLDEAGEWLVMWGVCTHLGCVPIGGVSGDFGGWFCPCHGSHYDSAGRIRKGPAPENLPIPLAKFIDETTIQLG
notes: also called Rieske subunit; Rieske ISP; source: endogenous, R. sphaeroides grown photosynthetically; SMA-solubilised membranes, purified in native nanodiscs (Ni-NTA, sucrose gradient, SEC)
- binding result [2]: binds

B2: four-subunit Rhodobacter sphaeroides cytochrome bc1 complex (one monomer of the dimeric complex: cyt b, cyt c1, Rieske subunit, SIV) (complex)
chain 1: T2 sequence (looked up)
chain 2: AGGGHVEDVPFSFEGPFGTFDQHQLQRGLQVYTEVCAACHGMKFVPIRSLSEPGGPELPEDQVRAYATQFTVTDEETGEDREGKPTDHFPHSALENAADLSLMAKARAGFHGPMGTGISQLFNGIGGPEYIYSVLTGFPEEPPKCAEGHEPDGFYYNRAFQNGSVPDTCKDANGVKTTAGSWIAMPPPLMDDLVEYADGHDASVHAMAEDVSAFLMWAAEPKLMARKQAGFTAVMFLTVLSVLLYLTNKRLWAGVKGKKKTNV
chain 3: B1 chain
chain 4: MFSFIDDIPSFEQIKARVRDDLRKHGWEKRWNDSRLVQKSRELLNDEELKIDPATWIWKRMPSREEVAARRQRDFETVWKYRYRLGGFASGALLALALAGIFSTGNFGGSSDAGNRPSVVYPIE
notes: also called cyt bc1; cyt bc1-nanodisc complex
- stoichiometry N [3]: 2
